In FireProtDB (doi:10.1002/pro.5560061014):

Details: Bacillus amyloliquefaciens, pH 7.4, Thermal, DSC, Sodium phosphate 50 mM, reversible: yes, whole UniProt chain shown

B1: Barstar wild type, P11540 (protein)
chain: MKKAVINGEQIRSISDLHQTLKKELALPEYYGENLDALWDCLTGWVEYPLVLEWRQFEQSKQLTENGAESVLQVFREAKAEGCDITIILS
- heat capacity change of unfolding (25 °C): 1.27 kcal/mol/K
- unfolding free energy (25 °C): 5.62 kcal/mol
- Tm: 72.8 °C
- heat capacity change of unfolding: 1.27 kcal/mol/K
- unfolding enthalpy (calorimetric): 72.5 kcal/mol
